Substance,"fluorescence read of probe cleavage, recombinant protease assay (Probe #554)","fluorescence read of probe cleavage, recombinant protease assay (Probe #417)",further results
DPP4,"Probe #554 sensed MMP1, MMP2, MMP13, MMP14, and DPP4 (FIG. 55F)",–,"fluorescence read of probe cleavage, recombinant protease assay (Probe #349): Probe #349 sensed MMP2 and DPP4 (FIG. 55A); fluorescence read of probe cleavage, recombinant protease assay (Probe #387): Probe #387 sensed DPP4 (FIG. 55G); fluorescence read of probe cleavage, recombinant protease assay (Probe #411): Probe #411 sensed DPP4 (FIG. 55B)"
MMP1,"Probe #554 sensed MMP1, MMP2, MMP13, MMP14, and DPP4 (FIG. 55F)","Probe #417 sensed MMP1, MMP2, MMP8, MMP13, and MMP14 (FIG. 55C)",–
MMP2,"Probe #554 sensed MMP1, MMP2, MMP13, MMP14, and DPP4 (FIG. 55F)","Probe #417 sensed MMP1, MMP2, MMP8, MMP13, and MMP14 (FIG. 55C)","fluorescence read of probe cleavage, recombinant protease assay (Probe #117): Probe #117 sensed MMP2 and MMP20 (FIG. 55D); fluorescence read of probe cleavage, recombinant protease assay (Probe #349): Probe #349 sensed MMP2 and DPP4 (FIG. 55A)"
MMP8,–,"Probe #417 sensed MMP1, MMP2, MMP8, MMP13, and MMP14 (FIG. 55C)",–
MMP13,"Probe #554 sensed MMP1, MMP2, MMP13, MMP14, and DPP4 (FIG. 55F)","Probe #417 sensed MMP1, MMP2, MMP8, MMP13, and MMP14 (FIG. 55C)","fluorescence read of probe cleavage, recombinant protease assay (Probe #263): Probe #263 sensed MMP13 (FIG. 55E)"
MMP14,"Probe #554 sensed MMP1, MMP2, MMP13, MMP14, and DPP4 (FIG. 55F)","Probe #417 sensed MMP1, MMP2, MMP8, MMP13, and MMP14 (FIG. 55C)",–
MMP20,–,–,"fluorescence read of probe cleavage, recombinant protease assay (Probe #117): Probe #117 sensed MMP2 and MMP20 (FIG. 55D)"
# MMP2, sequence (P08253 110-660): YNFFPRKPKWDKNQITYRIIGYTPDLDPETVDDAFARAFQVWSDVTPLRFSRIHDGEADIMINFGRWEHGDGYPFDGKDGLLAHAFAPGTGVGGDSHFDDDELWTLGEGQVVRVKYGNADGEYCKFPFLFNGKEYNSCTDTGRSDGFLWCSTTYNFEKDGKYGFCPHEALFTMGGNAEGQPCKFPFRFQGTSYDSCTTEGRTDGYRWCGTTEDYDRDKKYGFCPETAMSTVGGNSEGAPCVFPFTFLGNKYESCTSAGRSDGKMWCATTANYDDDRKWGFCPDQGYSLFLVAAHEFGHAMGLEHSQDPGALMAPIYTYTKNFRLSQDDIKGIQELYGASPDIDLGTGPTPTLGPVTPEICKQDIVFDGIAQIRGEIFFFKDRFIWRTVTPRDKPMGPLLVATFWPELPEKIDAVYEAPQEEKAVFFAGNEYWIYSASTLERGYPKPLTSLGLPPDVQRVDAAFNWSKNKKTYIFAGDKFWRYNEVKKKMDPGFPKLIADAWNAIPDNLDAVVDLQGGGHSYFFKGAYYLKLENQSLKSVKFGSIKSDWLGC
# MMP1, sequence (P03956 100-469): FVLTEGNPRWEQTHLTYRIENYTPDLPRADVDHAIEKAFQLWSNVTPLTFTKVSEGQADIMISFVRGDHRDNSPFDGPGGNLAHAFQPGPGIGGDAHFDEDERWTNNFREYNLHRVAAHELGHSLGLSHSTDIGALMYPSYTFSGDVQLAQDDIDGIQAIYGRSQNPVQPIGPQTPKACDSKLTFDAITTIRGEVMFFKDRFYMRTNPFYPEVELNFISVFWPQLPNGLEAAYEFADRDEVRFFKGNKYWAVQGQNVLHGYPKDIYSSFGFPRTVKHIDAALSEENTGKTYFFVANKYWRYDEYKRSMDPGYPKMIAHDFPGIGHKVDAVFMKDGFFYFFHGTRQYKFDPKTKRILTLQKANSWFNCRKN
# MMP20, sequence (O60882 108-483): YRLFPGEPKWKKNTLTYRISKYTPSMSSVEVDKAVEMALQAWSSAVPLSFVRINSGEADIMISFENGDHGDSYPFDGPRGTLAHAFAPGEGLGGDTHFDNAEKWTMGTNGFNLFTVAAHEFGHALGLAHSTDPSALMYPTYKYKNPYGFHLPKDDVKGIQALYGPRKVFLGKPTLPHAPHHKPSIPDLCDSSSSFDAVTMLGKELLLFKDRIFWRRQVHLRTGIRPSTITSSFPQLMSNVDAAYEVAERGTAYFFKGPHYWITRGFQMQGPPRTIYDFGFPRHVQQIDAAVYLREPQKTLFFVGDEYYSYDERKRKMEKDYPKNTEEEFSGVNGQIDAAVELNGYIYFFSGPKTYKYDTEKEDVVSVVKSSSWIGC
